The values that follow come from US20210054076A1 (Chugai, published 2021).

In one test the target is T1, hCLDN6(Q156L) (human, UniProt P56747 1-220).
T1 construct: Stably expressed on Ba/F3 cells; also called human CLDN6 mutant; BaF3_hCLDN6(Q156L)
T1 chain: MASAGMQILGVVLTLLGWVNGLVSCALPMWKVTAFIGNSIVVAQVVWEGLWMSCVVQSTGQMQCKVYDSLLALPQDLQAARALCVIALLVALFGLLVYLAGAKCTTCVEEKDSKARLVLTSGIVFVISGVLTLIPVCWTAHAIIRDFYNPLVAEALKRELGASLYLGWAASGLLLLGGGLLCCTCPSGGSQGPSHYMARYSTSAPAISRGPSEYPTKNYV
The test can be described thus: FACS on Ba/F3 transfectant, antibody 20 micro g/ml, FITC anti-human IgG. As to the method: (§1) To evaluate the binding activity and specificity of the generated CLDN6-TRABs against CLDN6 and other Claudin family antigens, FACS analysis was conducted as follows. Ba/F3 transfectants stably express a kind of protein selected from human CLDN3 (hCLDN3), human CLDN4 (hCLDN4), human CLDN6 (hCLDN6), human CLDN9 (hCLDN9), mouse CLDN3 (mCLDN3), mouse CLDN4 (mCLDN4) and mouse CLDN6 (mCLDN6), were generated using similar method described in WO2008/087978, and named BaF3_hCLDN3, BaF3_hCLDN4, BaF3_hCLDN6, BaF3_hCLDN9, BaF3 mCLDN3, BaF3 mCLDN4, BaF3 mCLDN6, respectively. Each of the CLDN6-TRABs (CH01/CD3, CH02/CD3, CH03/CD3, CH04/CD3) was incubated with the Ba/F3 transfectants at an antibody concentration of 20 micro g/ml in FACS buffer (0.5% BSA containing autoMACS Rinsing Solution, Miltenyl Biotec). Binding activities of each CLDN6-TRAB to the Claudin family proteins (hCLDN3, hCLDN4, hCLDN6, hCLDN9, mCLDN3, mCLDN4, mCLDN6) were examined by incubation of FITC-conjugated goat anti human IgG (BeckmanCoulter), represented as Geo-mean value. Sample processing was conducted on FACSVerse (BD).
(§2) Claudin family proteins have two extracellular domains. The sequence of the first extracellular domain in human CLDN9 is almost the same compared with the first extracellular domain of human CLDN6. For the second extracellular domain of human CLDN9, there are only two amino acids different from the ones at their corresponding positions in human CLDN6 (FIG. 2). The glutamine at position 156 of human Claudin 6 (position 156 in the sequence shown in SEQ ID NO: 44 or 45) was substituted to leucine to make a human CLDN6 mutant comprising the same amino acid as human Claudin 9 at position 156. This human CLDN6 mutant was named as hCLDN6(Q156L) (SEQ ID NO: 53). Ba/F3 transfectant stably express hCLDN6(Q156L) was generated using similar method described in WO2008/087978. The established Ba/F3 transfectant was named BaF3_hCLDN6(Q156L). Binding activity of the generated CLDN6-TRABs against BaF3_hCLDN6(Q156L) was measured using the above mentioned FACS method and the results are shown in FIG. 1 and Table 3.

The next test addresses T2, mouse CLDN3 (mouse, UniProt Q9Z0G9 1-219).
T2 construct: whole, on cells; also called mCLDN3; BaF3_mCLDN3
T2 sequence (looked up): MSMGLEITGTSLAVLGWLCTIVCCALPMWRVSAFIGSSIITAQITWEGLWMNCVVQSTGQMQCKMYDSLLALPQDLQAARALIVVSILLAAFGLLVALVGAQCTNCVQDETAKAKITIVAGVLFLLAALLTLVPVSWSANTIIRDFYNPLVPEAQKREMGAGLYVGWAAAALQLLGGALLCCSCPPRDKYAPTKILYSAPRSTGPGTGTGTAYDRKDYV
The test is described as above. As for the experimental part:
as §1, §2

For a further test, the target named is T3, mouse CLDN4 (mouse, UniProt O35054 1-210).
T3 construct: whole, on cells; also called mCLDN4; BaF3_mCLDN4
T3 sequence (looked up): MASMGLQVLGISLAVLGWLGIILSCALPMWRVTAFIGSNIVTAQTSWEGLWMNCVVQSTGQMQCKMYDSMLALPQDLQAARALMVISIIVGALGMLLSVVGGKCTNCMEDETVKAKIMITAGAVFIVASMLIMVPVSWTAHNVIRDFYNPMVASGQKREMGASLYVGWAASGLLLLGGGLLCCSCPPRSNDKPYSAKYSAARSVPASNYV
The test is described as above. As for the experimental part: as §1, §2

For another test, the target named is T4, mouse CLDN6 (mouse, UniProt Q9Z262 1-219).
T4 construct: whole, on cells; also called mCLDN6; BaF3_mCLDN6
T4 sequence (looked up): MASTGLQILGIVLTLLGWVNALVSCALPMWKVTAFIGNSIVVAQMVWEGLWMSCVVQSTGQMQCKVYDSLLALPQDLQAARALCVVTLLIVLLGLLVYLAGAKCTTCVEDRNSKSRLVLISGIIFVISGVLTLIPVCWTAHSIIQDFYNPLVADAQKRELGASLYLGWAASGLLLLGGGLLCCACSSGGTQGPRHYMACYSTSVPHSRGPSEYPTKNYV
Described as above. As for the experimental part: as §1, §2

The next test has as its target T5, human CLDN3 (human, UniProt O15551 1-220).
T5 construct: whole, on cells; also called hCLDN3; BaF3_hCLDN3
T5 sequence (looked up): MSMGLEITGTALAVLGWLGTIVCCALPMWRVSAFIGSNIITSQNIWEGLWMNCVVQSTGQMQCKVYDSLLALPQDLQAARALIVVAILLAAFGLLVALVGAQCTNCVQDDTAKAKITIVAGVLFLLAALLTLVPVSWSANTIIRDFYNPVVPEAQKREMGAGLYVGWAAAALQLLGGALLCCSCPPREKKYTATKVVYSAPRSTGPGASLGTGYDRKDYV
Described as above. As for the experimental part: as §1, §2

The target of a further test is T6, human CLDN4 (human, UniProt O14493 1-209).
T6 construct: whole, on cells; also called hCLDN4; BaF3_hCLDN4
T6 sequence (looked up): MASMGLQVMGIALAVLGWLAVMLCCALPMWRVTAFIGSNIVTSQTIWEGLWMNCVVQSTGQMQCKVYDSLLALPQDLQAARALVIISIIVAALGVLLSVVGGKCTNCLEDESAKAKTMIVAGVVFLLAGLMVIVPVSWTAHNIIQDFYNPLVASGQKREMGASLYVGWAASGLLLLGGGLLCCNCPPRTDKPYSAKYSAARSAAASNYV
Described as above. As to the method:
as §1, §2

Test [1] has as its target T7, human CLDN6 (human, UniProt P56747 1-220).
T7 sequence: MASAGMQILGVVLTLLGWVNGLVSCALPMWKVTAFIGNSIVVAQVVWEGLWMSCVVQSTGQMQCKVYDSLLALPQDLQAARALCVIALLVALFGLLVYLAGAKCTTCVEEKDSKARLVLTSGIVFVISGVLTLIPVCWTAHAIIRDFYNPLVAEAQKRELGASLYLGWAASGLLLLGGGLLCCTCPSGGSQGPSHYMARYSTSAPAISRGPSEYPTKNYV
The test is described as above. As for the experimental part: as §1, §2

For another test, the target named is T8, human CLDN9 (human, UniProt O95484 1-217).
T8 construct: whole, on cells; also called hCLDN9; BaF3_hCLDN9
T8 sequence (looked up): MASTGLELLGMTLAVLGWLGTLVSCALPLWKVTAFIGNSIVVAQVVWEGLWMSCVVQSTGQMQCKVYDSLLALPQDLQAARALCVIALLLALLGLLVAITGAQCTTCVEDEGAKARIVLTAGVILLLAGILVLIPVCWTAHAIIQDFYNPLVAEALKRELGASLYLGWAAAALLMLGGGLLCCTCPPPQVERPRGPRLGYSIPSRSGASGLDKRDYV
The test is described as above. As for the experimental part: as §1, §2

The target of test [2] is T7, human CLDN6. The test can be described thus: cell-based or functional assay.
Test [3] deals with T7, human CLDN6. Description: cell-based or functional assay. The source holds these as a separate data set.

As to isotype control (antibody), the Geo-mean value of FACS stood at 62 with hCLDN6(Q156L); 29 in the test with mouse CLDN3; 31 in the test with mouse CLDN4; 43 in the test with mouse CLDN6; 78 in the test with human CLDN3; 42 with human CLDN4. Moreover, the figures for the Geo-mean value of FACS in the test with human CLDN6 [1] and in the test with human CLDN9 were 29 and 96, respectively.

B1: CH02/CD3 (bispecific antibody, human IgG1, kappa, N297A)
heavy 1: EVQVEQSGLELVKPGASVKISCKTSGYTFTEYTMHWVKQSHGKSLEWIGGINPNNGNTRYNQKFKDKATLTVDKSSRTAYMELHTLTSEDSAVYYCARCGDYDLFFFFAYWGQGTLVTVSAASTKGPSVFPLAPSSKSTSGGTAALGCLVKDYFPEPVTVSWNSGALTSGVHTFPAVLQSSGLYSLSSVVTVPSSSLGTQTYICNVNHKPSNTKVDKKVEPKSCDKTHTCPPCPAPELRGGPKVFLFPPKPKDTLMISRTPEVTCVVVDVSHEDPEVKFNWYVDGVEVHNAKTKPREEQYASTYRVVSVLTVLHQDWLNGKEYKCKVSNKALPAPIEKTISKAKGQPREPQVYTLPPSREEMTKNQVSLTCLVKGFYPSDIAVEWESNGQPENNYKTTPPYLDSDGSFFLYSKLTVDKSRWQQGNVFSCSVMHEALHNHYTQESLSLSP
light 1: DIVMTQFQKFMSTSVGDRVSVTCKASQNVGTNVAWYQQKPGQSPEALISSASSRFSGVPDRFTGSGSGTDFTLTITNVQSEDLADYFCQQYNSFPFTFGSGTELEIKRTVAAPSVFIFPPSDEQLKSGTASVVCLLNNFYPREAKVQWKVDNALQSGNSQESVTEQDSKDSTYSLSSTLTLSKADYEKHKVYACEVTHQGLSSPVTKSFNRGEC
heavy 2: QVQLVESGGGVVQPGGSLRLSCAASGFTFSNAWMHWVRQAPGKGLEWVAQIKDKSQNYATYVAESVKGRFTISRADSKNSIYLQMNSLKTEDTAVYYCRYVHYAAGYGVDIWGQGTTVTVSSASTKGPSVFPLAPSSKSTSGGTAALGCLVKDYFPEPVTVSWNSGALTSGVHTFPAVLQSSGLYSLSSVVTVPSSSLGTQTYICNVNHKPSNTKVDKKVEPKSCDKTHTCPPCPAPELRGGPKVFLFPPKPKDTLMISRTPEVTCVVVDVSHEDPEVKFNWYVDGVEVHNAKTKPREEQYASTYRVVSVLTVLHQDWLNGKEYKCKVSNKALPAPIEKTISKAKGQPREPQVYTLPPSRKEMTKNQVSLTCLVKGFYPSDIAVEWESNGQPENNYKTTPPYLDSDGSFFLYSKLTVDKSRWQQGNVFSCSVMHEALHNHYTQKSLSLSP
light 2: DIVMTQSPLSLPVTPGEPASISCRSSQPLVHSNRNTYLHWYQQKPGQAPRLLIYKVSNRFSGVPDRFSGSGSGTDFTLKISRVEAEDVGVYYCGQGTQVPYTFGQGTKLEIKRTVAAPSVFIFPPSDEQLKSGTASVVCLLNNFYPREAKVQWKVDNALQSGNSQESVTEQDSKDSTYSLSSTLTLSKADYEKHKVYACEVTHQGLSSPVTKSFNRGEC
notes: Made by Fab arm exchange of the bivalent anti-CLDN6 antibody CH02 with the bivalent anti-CD3 antibody CD3-1; human IgG1 constant region; One anti-CLDN6 arm and one anti-CD3 arm; also called CLDN6-TRAB; CLDN6-targeted T-cell redirecting bispecific antibody
Consider B1, for which, in the test with human CLDN6 [2], the “EC50 (read off the curve), Jurkat/NFAT-RE luciferase reporter, target cells ABC-1” value was ~50 pM. Besides, the “EC50 (read off the curve), Jurkat/NFAT-RE luciferase reporter, target cells PA-1” value with human CLDN6 [3] is ~30 pM. Also, the “Geo-mean value of FACS” value with hCLDN6(Q156L) was 69; with mouse CLDN3 it was 27; with mouse CLDN4 it was 22; with mouse CLDN6, 1760; with human CLDN3 it was 37; with human CLDN4, 35. Also, the results for the “Geo-mean value of FACS” value in the test with human CLDN6 [1] and in the test with human CLDN9 were 4740 and 84, respectively.
